Residue numbers refer to the chain shown, from its start. Names and notes keep the numbering of the source. Values belong to the binder of their own block, whether it stands above or below them.
Molecular target: T1, TNFR1 (Homo sapiens, UniProt P19438)
T1 chain: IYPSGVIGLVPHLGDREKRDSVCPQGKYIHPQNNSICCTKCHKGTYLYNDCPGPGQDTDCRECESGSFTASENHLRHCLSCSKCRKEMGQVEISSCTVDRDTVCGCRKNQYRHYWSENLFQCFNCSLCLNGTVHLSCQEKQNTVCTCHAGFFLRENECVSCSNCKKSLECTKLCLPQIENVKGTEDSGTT
Test: yeast display SC50

- apparent Kd (screen): 22.2 nM
B1: K17P (designed binder)
chain: SMEEEVEKAAKEYEKKPKEAIEKHLEKLKAKDKEAAERFLKELEEAAKEYAKDEAKTMSEEEAKRRAKKYKEKVLLSELSEEEQKEIKEAEEKLVRTILKYVEEAAK

- apparent Kd (screen): 0.446 nM
B2: K11T (designed binder)
chain: B1 chain with K11T, P17K

- apparent Kd (screen): 0.49 nM
B3: K48C (designed binder)
chain: B1 chain with P17K, K48C

- apparent Kd (screen): 0.446 nM
B4: K23A (designed binder)
chain: B1 chain with P17K, K23A

- apparent Kd (screen): 0.653 nM
B5: E89D (designed binder)
chain: B1 chain with P17K, E89D

- apparent Kd (screen): 0.446 nM
B6: E83C (designed binder)
chain: B1 chain with P17K, E83C

- apparent Kd (screen): 0.49 nM
B7: I21F (designed binder)
chain: B1 chain with P17K, I21F

- apparent Kd (screen): 1.27 nM
B8: A90V (designed binder)
chain: B1 chain with P17K, A90V

- apparent Kd (screen): 12.5 nM
B9: E91F (designed binder)
chain: B1 chain with P17K, E91F

- apparent Kd (screen): 0.446 nM
B10: E12K (designed binder)
chain: B1 chain with E12K, P17K

- apparent Kd (screen): 1.16 nM
B11: R38L (designed binder)
chain: B1 chain with P17K, R38L

- apparent Kd (screen): 2.73 nM
B12: A105R (designed binder)
chain: B1 chain with P17K, A105R

- apparent Kd (screen): 1.27 nM
B13: E45W (designed binder)
chain: B1 chain with P17K, E45W

- apparent Kd (screen): 1.4 nM
B14: E3T (designed binder)
chain: B1 chain with E3T, P17K

- apparent Kd (screen): 4.39 nM
B15: E7Q (designed binder)
chain: B1 chain with E7Q, P17K

- apparent Kd (screen): 0.869 nM
B16: K41S (designed binder)
chain: B1 chain with P17K, K41S

- apparent Kd (screen): 0.446 nM
B17: A90L (designed binder)
chain: B1 chain with P17K, A90L

- apparent Kd (screen): 0.869 nM
B18: K71S (designed binder)
chain: B1 chain with P17K, K71S

- apparent Kd (screen): 26.9 nM
B19: E7I (designed binder)
chain: B1 chain with E7I, P17K

- apparent Kd (screen): 0.869 nM
B20: E44D (designed binder)
chain: B1 chain with P17K, E44D

- apparent Kd (screen): 0.446 nM
B21: K31F (designed binder)
chain: B1 chain with P17K, K31F

- apparent Kd (screen): 0.539 nM
B22: E26H (designed binder)
chain: B1 chain with P17K, E26H

- apparent Kd (screen): 12.5 nM
B23: I87N (designed binder)
chain: B1 chain with P17K, I87N

- apparent Kd (screen): 2.73 nM
B24: A20V (designed binder)
chain: B1 chain with P17K, A20V
